The results in this text go back to patent publication US20030103975A1 (published 2003).

The experiment addresses human fibronectin (BD Biosciences) (human, UniProt P02751-8 32-2296, limits assumed). The experiment is described as follows: solid-phase saturation binding ELISA: coated fibronectin at varying concentrations, soluble integrin at 5 ng/µl, detected with LM609. The procedure: FIGS. 3A-D. Wells of a 96-well plate were coated with varying concentrations of G⁹¹⁹⁻¹²⁰⁷, G⁹¹⁹⁻¹⁰¹⁸ and G¹⁰¹⁶⁻¹²⁰⁷ (A) or fibronectin (B). αvβ3 integrin (5 ng/μl) was then added to, allowed to bind for 1 h at 37° C., and binding evaluated by ELISA using LM609 followed by a secondary antibody conjugated to alkaline phosphatase. […] is a competition binding curve. Soluble αvβ3 (5 ng/μl) was added to wells coated with G⁹¹⁹⁻¹²⁰⁷ in the presence of increasing concentrations of fibronectin at 37° C. […] In all studies, absorbance was measured at 405 nm. Each of the graphs is representative of at least three separate experiments.
ELISA Assays. Wells of 96-well non-tissue culture treated plates were coated with protein at varying concentrations for 18 h at 4° C. Each well was rinsed three times and blocked with 1% BSA in PBS for 1 h at 37° C. Soluble integrin heterodimers were diluted in binding buffer (25 mM Tris buffer, […], 1 mM MgCl2, 0.5 mM MnCl2, 0.05% BSA, pH 7.5) and added to each well for a final concentration of 5 ng/μl. After incubating for 90 min at 37° C. wells were rinsed three times in binding buffer and appropriate mouse monoclonal anti-integrin antibody was added for 1 h at 37° C. […] Absorbance at 405 nm was measured with a Vmax plate reader (Molecular Devices, Menlo Park, Calif.). Nonspecific binding was determined by the addition of 10 mM EDTA to binding buffer. […]
Background: An ELISA detects its analyte on a solid surface through an enzyme-linked reagent.

human fibronectin (BD Biosciences), sequence (P02751 other isoform, or with tags, fused parts or gaps limits assumed): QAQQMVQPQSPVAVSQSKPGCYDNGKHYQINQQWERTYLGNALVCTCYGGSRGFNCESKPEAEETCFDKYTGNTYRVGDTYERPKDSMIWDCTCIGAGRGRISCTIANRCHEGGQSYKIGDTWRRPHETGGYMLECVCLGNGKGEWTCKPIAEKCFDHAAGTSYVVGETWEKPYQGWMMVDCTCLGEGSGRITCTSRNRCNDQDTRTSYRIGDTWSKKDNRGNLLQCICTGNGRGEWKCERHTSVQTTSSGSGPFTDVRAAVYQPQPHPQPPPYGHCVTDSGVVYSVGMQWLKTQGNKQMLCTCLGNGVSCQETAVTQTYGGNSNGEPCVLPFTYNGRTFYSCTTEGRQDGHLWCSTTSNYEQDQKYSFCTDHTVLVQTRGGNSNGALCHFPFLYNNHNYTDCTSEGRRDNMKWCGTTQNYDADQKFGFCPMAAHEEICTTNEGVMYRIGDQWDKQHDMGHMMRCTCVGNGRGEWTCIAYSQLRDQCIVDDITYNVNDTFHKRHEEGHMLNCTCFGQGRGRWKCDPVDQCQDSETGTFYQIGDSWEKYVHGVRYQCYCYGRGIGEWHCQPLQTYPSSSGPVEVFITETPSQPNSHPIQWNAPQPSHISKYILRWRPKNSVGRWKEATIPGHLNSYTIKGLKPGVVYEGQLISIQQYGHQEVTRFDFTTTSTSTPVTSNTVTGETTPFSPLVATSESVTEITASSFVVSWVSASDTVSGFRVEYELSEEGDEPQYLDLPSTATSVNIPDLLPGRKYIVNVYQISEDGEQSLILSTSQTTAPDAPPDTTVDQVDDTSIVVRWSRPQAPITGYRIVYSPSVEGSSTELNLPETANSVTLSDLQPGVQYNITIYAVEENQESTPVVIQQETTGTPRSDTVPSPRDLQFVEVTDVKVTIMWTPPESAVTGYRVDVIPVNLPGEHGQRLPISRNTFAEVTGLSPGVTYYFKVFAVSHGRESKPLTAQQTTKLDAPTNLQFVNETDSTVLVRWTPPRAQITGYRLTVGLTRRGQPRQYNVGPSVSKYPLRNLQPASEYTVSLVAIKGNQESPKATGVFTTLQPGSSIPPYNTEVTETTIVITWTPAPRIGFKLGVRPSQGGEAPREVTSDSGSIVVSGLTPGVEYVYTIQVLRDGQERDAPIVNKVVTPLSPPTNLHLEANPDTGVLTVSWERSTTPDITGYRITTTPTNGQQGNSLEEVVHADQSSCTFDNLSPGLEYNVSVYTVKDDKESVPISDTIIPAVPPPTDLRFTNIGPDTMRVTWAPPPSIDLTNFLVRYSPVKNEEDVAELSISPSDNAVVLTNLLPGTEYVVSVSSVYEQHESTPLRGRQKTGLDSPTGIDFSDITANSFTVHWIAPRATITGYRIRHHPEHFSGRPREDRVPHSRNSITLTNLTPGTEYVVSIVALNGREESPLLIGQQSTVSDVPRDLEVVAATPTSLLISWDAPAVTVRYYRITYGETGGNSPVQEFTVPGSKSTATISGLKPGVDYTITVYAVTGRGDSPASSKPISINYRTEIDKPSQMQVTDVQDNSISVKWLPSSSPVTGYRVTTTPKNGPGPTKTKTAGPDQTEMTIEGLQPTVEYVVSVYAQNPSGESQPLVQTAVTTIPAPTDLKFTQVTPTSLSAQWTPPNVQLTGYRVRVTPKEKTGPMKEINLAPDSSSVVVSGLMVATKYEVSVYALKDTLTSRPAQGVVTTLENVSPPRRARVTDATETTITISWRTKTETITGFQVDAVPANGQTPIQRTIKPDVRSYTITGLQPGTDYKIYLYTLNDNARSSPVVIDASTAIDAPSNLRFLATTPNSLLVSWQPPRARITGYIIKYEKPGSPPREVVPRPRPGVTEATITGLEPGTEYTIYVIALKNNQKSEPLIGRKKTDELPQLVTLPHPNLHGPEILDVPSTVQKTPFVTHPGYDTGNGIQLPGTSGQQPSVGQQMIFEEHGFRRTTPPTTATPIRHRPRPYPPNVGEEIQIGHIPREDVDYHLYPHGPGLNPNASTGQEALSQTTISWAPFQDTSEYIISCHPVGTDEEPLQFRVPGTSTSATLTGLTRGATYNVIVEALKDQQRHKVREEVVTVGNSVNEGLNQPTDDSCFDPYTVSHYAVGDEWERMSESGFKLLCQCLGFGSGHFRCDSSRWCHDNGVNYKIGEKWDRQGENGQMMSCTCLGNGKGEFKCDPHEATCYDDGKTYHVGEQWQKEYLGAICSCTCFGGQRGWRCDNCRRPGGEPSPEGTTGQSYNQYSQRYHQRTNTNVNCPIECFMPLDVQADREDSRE

B1: soluble αvβ3 integrin heterodimer (Chemicon International) (receptor)
chain 1: FNLDVDSPAEYSGPEGSYFGFAVDFFVPSASSRMFLLVGAPKANTTQPGIVEGGQVLKCDWSSTRRCQPIEFDATGNRDYAKDDPLEFKSHQWFGASVRSKQDKILACAPLYHWRTEMKQEREPVGTCFLQDGTKTVEYAPCRSQDIDADGQGFCQGGFSIDFTKADRVLLGGPGSFYWQGQLISDQVAEIVSKYDPNVYSIKYNNQLATRTAQAIFDDSYLGYSVAVGDFNGDGIDDFVSGVPRAARTLGMVYIYDGKNMSSLYNFTGEQMAAYFGFSVAATDINGDDYADVFIGAPLFMDRGSDGKLQEVGQVSVSLQRASGDFQTTKLNGFEVFARFGSAIAPLGDLDQDGFNDIAIAAPYGGEDKKGIVYIFNGRSTGLNAVPSQILEGQWAARSMPPSFGYSMKGATDIDKNGYPDLIVGAFGVDRAILYRARPVITVNAGLEVYPSILNQDNKTCSLPGTALKVSCFNVRFCLKADGKGVLPRKLNFQVELLLDKLKQKGAIRRALFLYSRSPSHSKNMTISRGGLMQCEELIAYLRDESEFRDKLTPITIFMEYRLDYRTAADTTGLQPILNQFTPANISRQAHILLDCGEDNVCKPKLEVSVDSDQKKIYIGDDNPLTLIVKAQNQGEGAYEAELIVSIPLQADFIGVVRNNEALARLSCAFKTENQTRQVVCDLGNPMKAGTQLLAGLRFSVHQQSEMDTSVKFDLQIQSSNLFDKVSPVVSHKVDLAVLAAVEIRGVSSPDHVFLPIPNWEHKENPETEEDVGPVVQHIYELRNNGPSSFSKAMLHLQWPYKYNNNTLLYILHYDIDGPMNCTSDMEINPLRIKISSLQTTEKNDTVAGQGERDHLITKRDLALSEGDIHTLGCGVAQCLKIVCQVGRLDRGKSAILYVKSLLWTETFMNKENQNHSYSLKSSASFNVIEFPYKNLPIEDITNSTLVTTNVTWGIQPAPMPV
chain 2: GPNICTTRGVSSCQQCLAVSPMCAWCSDEALPLGSPRCDLKENLLKDNCAPESIEFPVSEARVLEDRPLSDKGSGDSSQVTQVSPQRIALRLRPDDSKNFSIQVRQVEDYPVDIYYLMDLSYSMKDDLWSIQNLGTKLATQMRKLTSNLRIGFGAFVDKPVSPYMYISPPEALENPCYDMKTTCLPMFGYKHVLTLTDQVTRFNEEVKKQSVSRNRDAPEGGFDAIMQATVCDEKIGWRNDASHLLVFTTDAKTHIALDGRLAGIVQPNDGQCHVGSDNHYSASTTMDYPSLGLMTEKLSQKNINLIFAVTENVVNLYQNYSELIPGTTVGVLSMDSSNVLQLIVDAYGKIRSKVELEVRDLPEELSLSFNATCLNNEVIPGLKSCMGLKIGDTVSFSIEAKVRGCPQEKEKSFTIKPVGFKDSLIVQVTFDCDCACQAQAEPNSHRCNNGNGTFECGVCRCGPGWLGSQCECSEEDYRPSQQDECSPREGQPVCSQRGECLCGQCVCHSSDFGKITGKYCECDDFSCVRYKGEMCSGHGQCSCGDCLCDSDWTGYYCNCTTRTDTCMSSNGLLCSGRGKCECGSCVCIQPGSYGDTCEKCPTCPDACTFKKECVECKKFDRGALHDENTCNRYCRDEIESVKELKDTGKDAVNCTYKNEDDCVVRFQYYEDSSGKSILYVVEEPECPKGPD
notes: Bought
A word on the Kd: it is the equilibrium constant for the complex coming apart. Low values mean tighter binding, high ones weaker binding. B1 registered a Kd of 15 nM.
